Test results published in US20230144436A1 (DYNE THERAPEUTICS, published 2023).

T1: cynomolgus monkey transferrin receptor 1 (cynomolgus monkey, UniProt Q5RDH6 89-760 (Pongo abelii entry), limits assumed)
T1 construct: also called cTfR1; cyTfR1
T1 chain: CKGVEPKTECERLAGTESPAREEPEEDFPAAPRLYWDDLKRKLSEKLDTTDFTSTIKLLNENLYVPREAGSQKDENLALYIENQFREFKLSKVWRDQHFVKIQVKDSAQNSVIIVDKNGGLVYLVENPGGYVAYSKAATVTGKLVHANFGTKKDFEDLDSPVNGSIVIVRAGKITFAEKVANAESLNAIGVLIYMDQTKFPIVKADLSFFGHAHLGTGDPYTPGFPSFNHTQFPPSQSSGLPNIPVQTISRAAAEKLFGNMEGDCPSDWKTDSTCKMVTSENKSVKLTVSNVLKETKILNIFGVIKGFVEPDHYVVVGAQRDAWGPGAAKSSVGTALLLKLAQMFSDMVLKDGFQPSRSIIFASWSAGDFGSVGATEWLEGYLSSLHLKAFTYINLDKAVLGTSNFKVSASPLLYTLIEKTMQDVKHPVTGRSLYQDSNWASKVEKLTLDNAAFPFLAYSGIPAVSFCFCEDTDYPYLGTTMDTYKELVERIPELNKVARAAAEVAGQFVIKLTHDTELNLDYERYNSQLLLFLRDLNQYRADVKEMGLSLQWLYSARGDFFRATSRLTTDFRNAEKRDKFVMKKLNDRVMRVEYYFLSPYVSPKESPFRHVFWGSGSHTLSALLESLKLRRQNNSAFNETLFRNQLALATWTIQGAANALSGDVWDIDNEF

T2: human transferrin receptor 2 (human, UniProt Q9UP52 105-801, limits assumed)
T2 construct: also called human TfR2; hTfR2
T2 sequence (looked up): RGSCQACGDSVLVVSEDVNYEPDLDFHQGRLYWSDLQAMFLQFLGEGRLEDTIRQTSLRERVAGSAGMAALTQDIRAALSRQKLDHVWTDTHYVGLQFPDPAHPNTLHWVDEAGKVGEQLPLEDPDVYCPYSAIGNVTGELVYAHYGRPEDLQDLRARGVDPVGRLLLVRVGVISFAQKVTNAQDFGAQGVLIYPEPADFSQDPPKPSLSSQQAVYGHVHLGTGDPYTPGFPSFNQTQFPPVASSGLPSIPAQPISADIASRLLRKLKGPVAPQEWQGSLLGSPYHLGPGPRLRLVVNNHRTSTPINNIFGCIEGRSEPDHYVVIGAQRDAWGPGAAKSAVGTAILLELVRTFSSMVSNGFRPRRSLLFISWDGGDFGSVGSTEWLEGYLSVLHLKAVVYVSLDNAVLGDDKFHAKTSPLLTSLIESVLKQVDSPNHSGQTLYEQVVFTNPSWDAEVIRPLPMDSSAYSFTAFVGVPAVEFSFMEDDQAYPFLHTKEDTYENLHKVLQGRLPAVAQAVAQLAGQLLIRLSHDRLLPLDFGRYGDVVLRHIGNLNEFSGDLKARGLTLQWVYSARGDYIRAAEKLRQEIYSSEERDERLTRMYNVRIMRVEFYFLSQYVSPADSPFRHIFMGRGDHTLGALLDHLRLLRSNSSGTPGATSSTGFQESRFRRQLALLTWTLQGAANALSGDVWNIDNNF

T3: cynomolgus monkey transferrin receptor 1 (cynomolgus monkey (Macaca fascicularis), UniProt Q5RDH6 89-760 (Pongo abelii entry), limits assumed)
T3 construct: also called cyTfR1; Cyno TfR1
T3 chain: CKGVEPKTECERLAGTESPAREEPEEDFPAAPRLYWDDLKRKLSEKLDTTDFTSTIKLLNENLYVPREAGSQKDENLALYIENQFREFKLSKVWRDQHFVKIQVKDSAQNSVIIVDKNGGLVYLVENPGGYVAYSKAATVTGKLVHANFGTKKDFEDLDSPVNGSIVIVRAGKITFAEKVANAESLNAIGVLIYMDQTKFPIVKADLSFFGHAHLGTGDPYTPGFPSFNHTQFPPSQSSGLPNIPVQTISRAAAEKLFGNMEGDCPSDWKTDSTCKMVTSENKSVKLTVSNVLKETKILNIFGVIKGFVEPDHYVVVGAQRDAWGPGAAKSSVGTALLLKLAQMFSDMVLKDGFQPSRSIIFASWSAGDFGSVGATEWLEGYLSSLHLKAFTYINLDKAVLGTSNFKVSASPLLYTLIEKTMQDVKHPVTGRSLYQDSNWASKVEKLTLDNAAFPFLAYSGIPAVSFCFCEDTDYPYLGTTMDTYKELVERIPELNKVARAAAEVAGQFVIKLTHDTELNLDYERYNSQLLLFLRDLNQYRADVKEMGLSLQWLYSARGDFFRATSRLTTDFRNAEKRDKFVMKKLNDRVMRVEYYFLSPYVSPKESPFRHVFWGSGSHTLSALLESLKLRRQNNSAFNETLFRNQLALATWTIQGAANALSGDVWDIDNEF


Tests used:
[1] = biological target: T4, human transferrin receptor 1 (human, UniProt P02786 89-760, limits assumed); experiment: ELISA
T4 construct: also called hTfR1; human TfR1

[2] = biological target: T1, cynomolgus monkey transferrin receptor 1; experiment: ELISA
[3] = biological target: T2, human transferrin receptor 2; experiment: ELISA
[4] = biological target: T5, human transferrin receptor 1 (human, UniProt P02786 89-760, limits assumed); experiment: average KD, antibody alone; method not given
T5 construct: also called hTfR1; huTfR1
Target sequence in this assay (P02786 89-760 limits assumed): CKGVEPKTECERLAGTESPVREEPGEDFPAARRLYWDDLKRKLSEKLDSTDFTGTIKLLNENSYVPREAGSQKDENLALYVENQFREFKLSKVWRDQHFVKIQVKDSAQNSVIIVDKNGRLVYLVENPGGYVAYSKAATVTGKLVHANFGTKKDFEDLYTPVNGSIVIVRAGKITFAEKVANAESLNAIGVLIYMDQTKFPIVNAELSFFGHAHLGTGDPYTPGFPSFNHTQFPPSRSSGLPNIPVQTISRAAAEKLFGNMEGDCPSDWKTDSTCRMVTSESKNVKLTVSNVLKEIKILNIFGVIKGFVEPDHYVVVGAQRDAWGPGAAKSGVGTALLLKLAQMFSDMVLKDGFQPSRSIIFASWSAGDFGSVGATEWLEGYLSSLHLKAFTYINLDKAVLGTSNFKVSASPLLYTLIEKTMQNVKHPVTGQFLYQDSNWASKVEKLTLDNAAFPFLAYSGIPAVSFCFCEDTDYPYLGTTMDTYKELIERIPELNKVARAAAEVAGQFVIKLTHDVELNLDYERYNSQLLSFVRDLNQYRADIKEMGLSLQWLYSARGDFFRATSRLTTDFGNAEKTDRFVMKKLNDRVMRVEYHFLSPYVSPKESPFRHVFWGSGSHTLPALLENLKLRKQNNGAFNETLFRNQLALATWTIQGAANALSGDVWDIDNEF

[5] = biological target: T3, cynomolgus monkey transferrin receptor 1; experiment: average KD, antibody alone; method not given
[6] = biological target: T5, human transferrin receptor 1; experiment: Carterra LSA SPR array, IgG captured on anti-IgG lawn, hTfR1 as analyte, 25 C, 1:1 Langmuir fit
Procedure: Selected anti-TfR1 antibodies were tested for their binding affinity to human TfR1 for measurement of Ka (association rate constant), Kd (dissociation rate constant), and KD (affinity). […] The binding experiment was performed on Carterra LSA at 25 C. An anti-mouse IgG and anti-human IgG antibody “lawn” was prepared on a HC30M chip by amine coupling. 59 IgGs (58 mouse mAbs and 1 human mAb) were captured on the chip. Dilution series of hTfR1, cyTfR1, and hTfR2 were injected to the chip for binding (starting from 1000 nM, 1:3 dilution, 8 concentrations).
Binding data were referenced by subtracting the responses from a buffer analyte injection and globally fitting to a 1:1 Langmuir binding model for estimate of Ka (association rate constant), Kd (dissociation rate constant), and KD (affinity) using the Carterra™ Kinetics software. 5-6 concentrations were used for curve fitting.
Target sequence in this assay (P02786 89-760 limits assumed): as above

[7] = biological target: T3, cynomolgus monkey transferrin receptor 1; experiment: ELISA on cyno TfR1
Procedure: (§1) The binding activity of selected formats were tested against human TfR1, cyno TfR1, and human TfR2 in an ELISA assay.

[8] = biological target: T5, human transferrin receptor 1; experiment: ELISA on human TfR1
Procedure: as §1

Binder | binding result [3] | Kd [4] [nM] | Kd [5] [nM] | Kd [6] [nM] | kon [6] [M⁻¹ s⁻¹] | further results
anti-TfR antibody shown in Table 7, unconjugated (Example 18) (antibody, V domains shown, also called anti-TfR alone; unconjugated anti-TfR) VH: QVQLVQSGAEVKKPGESLKISCKGSGYSFTSYWIGWVRQMPGKGLEWMGIIYPGDSDTRYSPSFQGQVTISADKSISTAYLQWSSLKASDTAMYYCARFPYDSSGYYSFDYWGQGTLVTVSS VL: not shown | – | – | – | – | – | EC50 [1]: 26.6 nM; EC50 [2]: 33.6 nM
anti-TfR antibody shown in Table 7 conjugated to a DMPK-targeting oligonucleotide (control DMPK-ASO) (antibody, V domains shown, Antibody-oligonucleotide conjugate; For the uptake assay the antibody was conjugated to several different DMPK-targeting oligonucleotides and labeled with Cypher5e; also called oligonucleotide-conjugated anti-TfR; anti-TfR Fab conjugates) VH: QVQLVQSGAEVKKPGESLKISCKGSGYSFTSYWIGWVRQMPGKGLEWMGIIYPGDSDTRYSPSFQGQVTISADKSISTAYLQWSSLKASDTAMYYCARFPYDSSGYYSFDYWGQGTLVTVSS VL: not shown | – | – | – | – | – | EC50 [1]: 8.2 nM; EC50 [2]: 5.3 nM
anti-TfR FAB, Table 7 clone (Fab, V domains shown) VH: QVQLVQSGAEVKKPGESLKISCKGSGYSFTSYWIGWVRQMPGKGLEWMGIIYPGDSDTRYSPSFQGQVTISADKSISTAYLQWSSLKASDTAMYYCARFPYDSSGYYSFDYWGQGTLVTVSS VL: not shown | no binding | – | – | – | – | –
anti-TfR hIgG1 (with L234A/L235A mutations in HC constant region), Table 7 clone (antibody, V domains shown, Tied by the description 'anti-TfR IgG heavy chain (with human IgG1 constant region mutant L234A/L235A)') VH: QVQLVQSGAEVKKPGESLKISCKGSGYSFTSYWIGWVRQMPGKGLEWMGIIYPGDSDTRYSPSFQGQVTISADKSISTAYLQWSSLKASDTAMYYCARFPYDSSGYYSFDYWGQGTLVTVSS VL: not shown | no binding | – | – | – | – | –
3-E5 (antibody, V domains shown, Tested as a mouse monoclonal IgG; also called 3-E05) VH: EIQMKQSGAELVKPGASVKISCKASGYSFTGYNMNWVKQSHGKSLEWIGNINPYYGSTGYNQKFKGKATLTVDKSSSTAYMQLNSLTSEDSAVYYCARGDYGYDEGTWFAYWGQGTLVTVSA VL: DIVMSQSPSSLAVSAGEKVTMSCKSSQSLLNSRTRKNYLAWYQQKPEQSPKLLIYWASTRESGVPDRFTGSGSGTDFTLTISSVQAEDLAVYYCKQSYNLPFTFGSGTKLEIK | – | 0.455 | 0.671 | 0.455 | 22000 | –
10-H2 (antibody, V domains shown, Tested as a mouse monoclonal IgG; also called 10-H02) VH: EVQLVESGGDLVKPGGSLKLSCAASGFTFSDYGMHWVRQGPEKGLEWVAYINSGSSTIYYADTVKGRFTISRDNAKNTLFLQMTSLRSEDTAMYYCARPGDYDNYAMDYWGQGTSVTVSS VL: DIVMTQSHKFLSTSVGDRVSITCKASQDVSVAVAWYQQKPGQSPKLLIYWAYTRHTGVPDRFTGSGSGTEYTLTISSVQAEDLALYYCQQHYNTPPWTFGGGTKLEIK | – | 2.72 | 12.4 | 2.72 | 126000 | –
2-H19 (antibody, V domains shown, Tested as a mouse monoclonal IgG) VH: EVQLQQSGAELVRSGASVKLSCTASGFNIKDYYMHWVKQRPEQGLEWIGWIDPESGDTEYAPKFQGRATMTADTSSNTAYMQLSSLTSEDTAVYYCYGHDYRVDCWGQGTSVTVSS VL: DVVMTQTPLSLPVSLGDQASISCRSSQSLVHSNGNTYLHWYLQKPGQSPKLLIYKVSNRFSGVPDRFSGSGSGTDFTLKISRVEAEDLGVYFCSQSTHIPWTFGGGTKLEIK | – | 2.06 | 5.75 | 2.06 | 222000 | –
Anti-TfR antibody 15G11 (antibody, V domains shown, Known control antibody; It was captured as an IgG on the Carterra chip; also called ctrl-15G11; 15G11 (control)) VH: QVQLQQPGAELVKPGASVKLSCKASGYTFTSYWMHWVKQRPGQGLEWIGEINPTNGRTNYIEKFKSKATLTVDKSSSTAYMQLSSLTSEDSAVYYCARGTRAYHYWGQGTSVTVSS VL: DIQMTQSPASLSVSVGETVTITCRASDNLYSNLAWYQQKQGKSPQLLVYDATNLADGVPSRFSGSGSGTQYSLKINSLQSEDFGTYYCQHFWGTPLTFGAGTKLELK | – | 0.8 | 1 | 0.283 | – | EC50 [7]: 1.08 nM; EC50 [8]: 0.589 nM
15G11 (antibody, V domains shown, Known anti-TfR1 antibody used as control; also called control antibody 15G11; ctrl-15G11) VH: QVQLQQPGAELVKPGASVKLSCKASGYTFTSYWMHWVKQRPGQGLEWIGEINPTNGRTNYIEKFKSKATLTVDKSSSTAYMQLSSLTSEDSAVYYCARGTRAYHYWGQGTSVTVSS VL: DIQMTQSPASLSVSVGETVTITCRASDNLYSNLAWYQQKQGKSPQLLVYDATNLADGVPSRFSGSGSGTQYSLKINSLQSEDFGTYYCQHFWGTPLTFGAGTKLELK | no binding | – | – | – | – | –
